Article doi:10.1101/2021.02.03.429564
Each block holds one molecule with its values, some of them ahead of it.

Experiments:
[1] = target: full-length recombinant human RAD51 protein, N-terminal 6xHis-tagged (human) (UniProt Q06609); assay: MST
[2] = target: full-length recombinant human RAD51 protein, N-terminal 6xHis-tagged (human) (UniProt Q06609); assay: static light scattering
[3] = target: full-length recombinant human RAD51 protein, N-terminal 6xHis-tagged (human) (UniProt Q06609)
[4] = target: T1, full-length recombinant human RAD51 protein, N-terminal 6xHis-tagged (human), Q06609; assay: static light scattering; details: remark: other sources report otherwise
T1 chain: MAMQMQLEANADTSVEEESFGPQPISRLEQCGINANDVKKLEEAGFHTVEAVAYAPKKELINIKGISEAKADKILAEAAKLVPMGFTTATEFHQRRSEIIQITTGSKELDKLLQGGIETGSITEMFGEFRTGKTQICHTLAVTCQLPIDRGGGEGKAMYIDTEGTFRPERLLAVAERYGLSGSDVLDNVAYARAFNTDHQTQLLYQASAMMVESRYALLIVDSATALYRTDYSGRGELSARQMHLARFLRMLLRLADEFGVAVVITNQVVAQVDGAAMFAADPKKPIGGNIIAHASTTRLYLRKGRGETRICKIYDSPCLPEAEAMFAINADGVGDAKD

EC50 [1]: 60 to 80 nM | EC50 [2]: 4000 to 5000 nM
Molecule: BRC4 peptide (fourth BRC repeat of the BRCA2 protein)

IC50 of inhibition of homologous recombination in BxPC-3 cells [3]: 5 µM
Molecule: Myristoylated BRC4 (BRC4-ss-Myr) (peptide)

stoichiometry N [4]: 40 protomers
B1: full-length recombinant human RAD51 protein, N-terminal 6xHis-tagged, Q06609 1-339 (natural protein)
chain: MAMQMQLEANADTSVEEESFGPQPISRLEQCGINANDVKKLEEAGFHTVEAVAYAPKKELINIKGISEAKADKILAEAAKLVPMGFTTATEFHQRRSEIIQITTGSKELDKLLQGGIETGSITEMFGEFRTGKTQICHTLAVTCQLPIDRGGGEGKAMYIDTEGTFRPERLLAVAERYGLSGSDVLDNVAYARAFNTDHQTQLLYQASAMMVESRYALLIVDSATALYRTDYSGRGELSARQMHLARFLRMLLRLADEFGVAVVITNQVVAQVDGAAMFAADPKKPIGGNIIAHASTTRLYLRKGRGETRICKIYDSPCLPEAEAMFAINADGVGDAKD
